# Assay results reported in publication PMC7193532 (Acta Crystallographica. Section D, Structural Biology, 2020).
# “And” between values parts separate entries of the source, which are not always exact repeats. Equal entries are not always repeated.
# Biological target: the Ala and ValAla insertions and the Met1Ala substitution and Ala insertion
# Experiment: SPR
substance,measurement,value
rufomycin I (RUF-I) (peptide),fold reduction in binding affinity against wild type,13 fold and 16 fold
